In US4851572A, “γ-L-glutamyl-4-nitroanilide derivatives and process for determining γ-GTP activity using the same” (Wako Pure Chemical Industries, Ltd., priority 1987, dated 1989):

Tested on: T1, N[C@@H](CCC(=O)Nc1ccc([N+](=O)[O-])c(CO)c1)C(=O)O
T1 construct: As samples, there were used human serum; from tissue; host or cells: human serum
Assay: Km value, γ-GTP from human serum
Format: biochemical
Details: other: human serum γ-GTP
Source text: In Table 3 are shown the results of measuring, by a conventional method, Km values of γ-L-glutamyl-3-hydroxymethyl-4-nitroanilide, which is a compound of this invention, for each of γ-GTPs derived from human serum, porcine kidney and bovine kidney.
In Table 3 are also shown, for reference, Km values of γ-L-glutamyl-3-carboxy-4-nitroanilide and γ-L-glutamyl-p-nitroanilide reported by Leslie M. Shaw (Clinical Chemistry, 23, 79 (1977)).

Sequence of γ-GTP (human serum) (Homo sapiens) (chain, as listed by the source): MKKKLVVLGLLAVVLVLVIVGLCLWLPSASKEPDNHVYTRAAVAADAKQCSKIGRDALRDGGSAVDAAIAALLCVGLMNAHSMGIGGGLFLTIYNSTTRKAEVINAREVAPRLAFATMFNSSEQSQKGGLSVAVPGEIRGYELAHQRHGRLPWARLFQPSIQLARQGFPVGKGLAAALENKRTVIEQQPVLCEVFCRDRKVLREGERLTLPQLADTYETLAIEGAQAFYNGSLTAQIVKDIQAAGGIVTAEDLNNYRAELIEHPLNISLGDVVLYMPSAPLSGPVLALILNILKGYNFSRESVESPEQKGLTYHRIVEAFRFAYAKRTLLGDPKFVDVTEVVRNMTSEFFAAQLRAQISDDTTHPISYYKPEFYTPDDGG
Sequence of γ-GTP (human serum) (Homo sapiens) (chain, as listed by the source): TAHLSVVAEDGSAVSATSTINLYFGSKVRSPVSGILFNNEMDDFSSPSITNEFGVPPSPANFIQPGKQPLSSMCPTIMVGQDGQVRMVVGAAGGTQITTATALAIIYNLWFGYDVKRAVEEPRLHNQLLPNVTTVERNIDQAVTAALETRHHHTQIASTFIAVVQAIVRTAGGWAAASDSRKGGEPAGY

Work on γ-GTP (human serum) (Homo sapiens) yielded a Km of 940 µM.
